Assay results reported in publication PMC7855068 (Nature structural & molecular biology, 2020).

T1: Arp7/Arp9/Rtt102 heterotrimer (S. cerevisiae, UniProt Q12406;Q05123;P53330)
T1 sequence 1: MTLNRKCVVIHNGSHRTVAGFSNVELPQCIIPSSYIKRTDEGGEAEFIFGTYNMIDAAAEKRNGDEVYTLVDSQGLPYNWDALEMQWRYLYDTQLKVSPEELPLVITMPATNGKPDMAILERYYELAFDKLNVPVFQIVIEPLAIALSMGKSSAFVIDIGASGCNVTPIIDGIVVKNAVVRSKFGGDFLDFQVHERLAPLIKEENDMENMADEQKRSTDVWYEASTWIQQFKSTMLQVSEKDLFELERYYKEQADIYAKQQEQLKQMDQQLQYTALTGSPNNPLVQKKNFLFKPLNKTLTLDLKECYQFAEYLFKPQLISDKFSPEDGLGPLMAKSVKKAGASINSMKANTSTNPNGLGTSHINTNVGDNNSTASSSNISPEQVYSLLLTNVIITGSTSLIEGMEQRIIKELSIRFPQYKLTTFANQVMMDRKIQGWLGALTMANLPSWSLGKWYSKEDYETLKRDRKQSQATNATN
T1 sequence 2: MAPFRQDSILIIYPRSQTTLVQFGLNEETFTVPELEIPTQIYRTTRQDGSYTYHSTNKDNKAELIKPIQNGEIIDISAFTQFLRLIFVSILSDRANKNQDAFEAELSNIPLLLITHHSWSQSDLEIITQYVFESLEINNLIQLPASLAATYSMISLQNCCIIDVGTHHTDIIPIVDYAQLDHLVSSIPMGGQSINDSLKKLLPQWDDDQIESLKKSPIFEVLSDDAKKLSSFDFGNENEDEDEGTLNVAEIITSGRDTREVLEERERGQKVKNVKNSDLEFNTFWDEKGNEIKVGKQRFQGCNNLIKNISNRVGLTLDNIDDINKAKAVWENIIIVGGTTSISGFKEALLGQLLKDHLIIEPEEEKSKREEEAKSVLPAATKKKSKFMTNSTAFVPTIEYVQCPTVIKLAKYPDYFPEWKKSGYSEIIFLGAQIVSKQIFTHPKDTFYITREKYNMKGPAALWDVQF
T1 sequence 3: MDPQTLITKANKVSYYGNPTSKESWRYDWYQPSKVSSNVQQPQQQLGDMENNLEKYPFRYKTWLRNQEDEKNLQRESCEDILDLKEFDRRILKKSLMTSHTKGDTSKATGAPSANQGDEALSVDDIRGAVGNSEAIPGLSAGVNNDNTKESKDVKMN

B1: Rtt102 (natural protein)
chain: T1 sequence 3
B2: Sth1 (AA 301–1097), truncated ATPase subunit of RSC (domain or fragment)
chain: VRLAEELERQQLLEKRKKERNLHLQKINSIIDFIKERQSEQWSRQERCFQFGRLGASLHNQMEKDEQKRIERTAKQRLAALKSNDEEAYLKLLDQTKDTRITQLLRQTNSFLDSLSEAVRAQQNEAKILHGEEVQPITDEEREKTDYYEVAHRIKEKIDKQPSILVGGTLKEYQLRGLEWMVSLYNNHLNGILADEMGLGKTIQSISLITYLYEVKKDIGPFLVIVPLSTITNWTLEFEKWAPSLNTIIYKGTPNQRHSLQHQIRVGNFDVLLTTYEYIIKDKSLLSKHDWAHMIIDEGHRMKNAQSKLSFTISHYYRTRNRLILTGTPLQNNLPELWALLNFVLPKIFNSAKTFEDWFNTPFANTGTQEKLELTEEETLLIIRRLHKVLRPFLLRRLKKEVEKDLPDKVEKVIKCKLSGLQQQLYQQMLKHNALFVGAGTEGATKGGIKGLNNKIMQLRKICNHPFVFDEVEGVVNPSRGNSDLLFRVAGKFELLDRVLPKFKASGHRVLMFFQMTQVMDIMEDFLRMKDLKYMRLDGSTKTEERTEMLNAFNAPDSDYFCFLLSTRAGGLGLNLQTADTVIIFDTDWNPHQDLQAQDRAHRIGQKNEVRILRLITTDSVEEVILERAMQKLDIDGKVIQAGKFDNKSTAEEQEAFLRRLIESETNRDDDDKAELDDDELNDTLARSADEKILFDKIDKERMNQERADAKAQGLRVPPPRLIQLDELPKVFREDIEEHFKKEDSEPLGRIRQKKRVYYDDGLTEEQFLEAVEDDNMSLEDAIKKRREARERRRLRQ
B3: Arp9 (natural protein)
chain: T1 sequence 2
B4: Arp7 (natural protein)
chain: T1 sequence 1
B5: HSA peptide (Sth1 residues 316–377) (peptide)
peptide: RKKERNLHLQKINSIIDFIKERQSEQWSRQERCFQFGRLGASLHNQMEKDEQKRIERTAKQR

Key:
Arp7 = target: B4; assay: cryo-EM structure
Arp9 = target: B3; assay: cryo-EM structure
[1] = target: T1, Arp7/Arp9/Rtt102 heterotrimer; assay: cryo-EM structure
[2] = target: B2; assay: cryo-EM structure
[3] = target: T1, Arp7/Arp9/Rtt102 heterotrimer; assay: circular dichroism

Binder | binding result (Arp7) | binding result [2] | also measured
B1 | binds | – | binding result (Arp9): binds
B2 | – | – | binding result [1]: binds
B3 | binds | binds | –
B4 | – | binds | –
B5 | – | – | binding result [3]: binds
